Measurements from PMC11685663.

Target: recombinant H5 hemagglutinin (rH5) ectodomain from A/Texas/37/2024 (H5N1, clade 2.3.4.4b) (influenza A virus A/Texas/37/2024 (H5N1))
Assay: cryo-EM structure

Substance: recombinant H5 hemagglutinin (rH5) ectodomain from A/Texas/37/2024 (H5N1, clade 2.3.4.4b) (natural protein)
- stoichiometry N: 3
